Experimental data taken from patent US20130189255A1 (GlaxoSmithKline, published 2013).

B1: 2xGLP-1 (7-37) A8G DOM7h-14 dAb fusion (DAT0114) (other)
chain: HGEGTFTSDVSSYLEGQAAKEFIAWLVKGRHGEGTFTSDVSSYLEGQAAKEFIAWLVKGRDIQMTQSPSSLSASVGDRVTITCRASQWIGSQLSWYQQKPGKAPKLLIMWRSSLQSGVPSRFSGSGSGTDFTLTISSLQPEDFATYYCAQGAALPRTFGQGTKVEIKA
notes: also called 2xGLP-1 (7-37) A8G DOM7h-14 fusion; 2xGLP-1 A8G DOM7h-14 fusion
B2: Rat serum albumin (other, UniProt P02770 25-608, looked up)
chain: EAHKSEIAHRFKDLGEQHFKGLVLIAFSQYLQKCPYEEHIKLVQEVTDFAKTCVADENAENCDKSIHTLFGDKLCAIPKLRDNYGELADCCAKQEPERNECFLQHKDDNPNLPPFQRPEAEAMCTSFQENPTSFLGHYLHEVARRHPYFYAPELLYYAEKYNEVLTQCCTESDKAACLTPKLDAVKEKALVAAVRQRMKCSSMQRFGERAFKAWAVARMSQRFPNAEFAEITKLATDVTKINKECCHGDLLECADDRAELAKYMCENQATISSKLQACCDKPVLQKSQCLAEIEHDNIPADLPSIAADFVEDKEVCKNYAEAKDVFLGTFLYEYSRRHPDYSVSLLLRLAKKYEATLEKCCAEGDPPACYGTVLAEFQPLVEEPKNLVKTNCELYEKLGEYGFQNAVLVRYTQKAPQVSTPTLVEAARNLGRVGTKCCTLPEAQRLPCVEDYLSAILNRLCVLHEKTPVSEKVTKCCSGSLVERRPCFSALTVDETYVPKEFKAETFTFHSDICTLPDKEKQIKKQTALAELVKHKPKATEDQLKTVMGDFAQFVDKCCKAADKDNCFATEGPNLVARSKEALA
notes: also called RSA
B3: GLP-1 (7-37) A8G, helical linker, DOM7h-14 dAb fusion (DAT0120) (other)
chain: HGEGTFTSDVSSYLEGQAAKEFIAWLVKGRGKEAAAKEAAAKEAAAKELAAKEAAAKEAAAKEAAAKELAADIQMTQSPSSLSASVGDRVTITCRASQWIGSQLSWYQQKPGKAPKLLIMWRSSLQSGVPSRFSGSGSGTDFTLTISSLQPEDFATYYCAQGAALPRTFGQGTKVEIKR
notes: also called GLP-1 A8G, helical linker, DOM7h-14 fusion; GLP-1 (7-37) A8G, helical linker, DOM7h-14 fusion

Tests used:
Mouse serum albumin = biological target: T1, Mouse serum albumin (mouse, UniProt P07724 25-608); assay: SPR (Biacore), albumin immobilised on CM5 chip, fusion in solution
T1 construct: also called MSA
Method: (§1) The analysis was performed using a CMS Biacore chip (carboxymethylated dextran matrix) that was coated with serum albumin. About 1000 resonance units (RUs) of each serum albumin to be tested (human, rat and mouse serum albumin) was immobilised in acetate buffer pH 5.5. […] Affinity (KD) was calculated from the BIACORE traces by fitting on-rate and off-rate curves to traces generated by concentrations of dAb in the region of the KD.

Human serum albumin = biological target: T2, Human serum albumin (human, UniProt P02768 25-609); assay: as above
T2 construct: also called HSA
Method: as §1

Rat serum albumin = biological target: B2; assay: as above
Method: as §1

[1] = biological target: T3, Exendin 4 (G4S linker)3 DOM7h-14 dAb fusion (DAT0115); assay: SPR (Biacore), biotinylated albumin on streptavidin chip, fusion in solution
T3 construct: also called Exendin 4 (G4S)3 DOM7h-14 fusion
Method: The analysis was performed using a streptavidin chip (SA) coated with biotinylated serum albumin. 200-1000 resonance units (RUs) of each serum albumin was immobilised on the chip. Flow cell 1 was uncoated, flow cell 2 was coated with HSA, flow cell 3 was coated with RSA and flow cell 4 was coated with CSA.
Affinity (KD) was calculated from the BIACORE traces by fitting on-rate and off-rate curves to traces generated by concentrations of dAb in the region of the KD.

T1 sequence (P07724 25-608 limits assumed): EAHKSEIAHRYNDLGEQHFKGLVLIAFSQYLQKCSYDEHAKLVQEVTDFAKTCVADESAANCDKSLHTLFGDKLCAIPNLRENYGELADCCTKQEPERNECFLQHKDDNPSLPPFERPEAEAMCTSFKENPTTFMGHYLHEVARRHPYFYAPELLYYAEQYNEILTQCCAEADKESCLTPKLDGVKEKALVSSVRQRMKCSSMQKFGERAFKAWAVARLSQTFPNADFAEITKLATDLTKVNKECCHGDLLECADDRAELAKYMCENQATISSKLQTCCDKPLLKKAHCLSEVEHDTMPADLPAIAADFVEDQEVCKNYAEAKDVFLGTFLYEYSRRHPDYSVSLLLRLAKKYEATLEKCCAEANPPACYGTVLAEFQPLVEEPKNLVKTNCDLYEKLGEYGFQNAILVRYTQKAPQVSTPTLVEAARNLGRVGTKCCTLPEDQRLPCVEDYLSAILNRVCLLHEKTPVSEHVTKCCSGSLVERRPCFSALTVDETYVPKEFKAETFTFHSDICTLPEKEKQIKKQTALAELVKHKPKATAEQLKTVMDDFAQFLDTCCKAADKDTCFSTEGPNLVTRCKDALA

B1
Kd (Mouse serum albumin): 0.13 µM | Kd (Human serum albumin): 0.15 µM | Kd (Rat serum albumin): 0.7 µM

B2
Kd [1]: 2 µM

B3
Kd (Mouse serum albumin): 0.11 µM | Kd (Human serum albumin): 0.11 µM | Kd (Rat serum albumin): 0.8 µM
